Laboratory results: the nanobody polyreactivity screen of Harvey et al. (2022)

Assay: yeast display, Sf9 membrane polyspecificity reagent, FACS + sequencing; frameworks hold sequencing errors
How it was run: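 After 36–48 hours of galactose induction, yeast (Saccharomyces cerevisiae BJ5465) displaying a synthetic nanobody library were stained at 4 °C for 1 hour with 10% biotinylated, detergent-solubilized Sf9 membrane reagent. Streptavidin microbeads enriched the stained cells before FACS sorting into low and high (top ~1%) gates on anti-HA and streptavidin fluorescence. Each clone's polyreactivity label reflects its gate of origin.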

Row | Sequence | polyreactivity (PSR sort gate)
1 | QVQHEESGGGLVQAGGSLRLSCAASGRIFHFNTMGWYRQAPGKERELVAAITSSGGSTNYADSVKGRFTISRDNAKNTVYLQMNSLKPEDTAVYYCNADTGAADYFDFDYWGQGTQVTVSS | low polyreactivity
2 | QVQHEESRGGLVQAGGSLRLSCAASVRTFSVNAMGRYRQAPGKEREFVAVISSNGGSTYYADSVKGRFTISLDNAKNTVYLQMNSLKPEDTAVYYCNARYWRGWGGRVSKYGYWGHGTQVTVSS | high polyreactivity
3 | QVQHVDSGGGLVQEGGSLRLSCAASGRIFTYNAMGWYRQAPGKERELVAAISRRGGTTYYADSVKGRFTISRDNAKNTVYLQMNSLKPEDTAVYYCAAVVYTRGVTSRPVSRYDYWGQGTQVTVSS | high polyreactivity
4 | QVQHVESAGGLVQAGGSLRLSCPASGRTINRNAMGWYRQAPGKERELVAAISWSGGRTYYADSVKGRFTISRDTAKNTVYLQMTSLKPEDTAVFSCAAPGNKYWGQGTQVTVSS | high polyreactivity
5 | QVQHVESAGRLVQAGGSLRLSCAASGRILVYYALGWYRQPPGKEREFVAAISQRGGSTYYADSVKGRFTISRDNAKNTVYLQMNSLKPDDTEVYYCATRPIQYRRGYDYWGQGTQVTVSS | high polyreactivity
6 | QVQHVESGAGLVQAGGSLRLSCAASGLILVYYAMGWYRQAPGKEREFVAAITPGGSTKYADSVKGRFTISRDNAKNTVYLQMNSLKPEDTAVYYCNALSGPYWYSVYQYHQDDYWGQGTQVTVSS | low polyreactivity
7 | QVQHVESGAGLVQAGGSLRLSCAASGSIFEINAMGWYRQAPGKERELVAAITGSGGSTHYADSVKVRFTISRDNAKNTVYLQMNSLKPEDTAVYYCAAVPRYQYGYWGQGNQVTVSS | low polyreactivity
8 | QVQHVESGAGLVQAGGSLRLTCAASARTFKPYARGWYRQPPGKERELLAVISFSGGSTYYADSVKGRFTISRDNSKNTFYLQMNSLKPEDTAVYYCNAEGVTRQGGYDYWGQGTQVTVSS | high polyreactivity
9 | QVQHVESGARLVQAGGSLRLSCAASGSTFYRNTMGWYRQAPGTERELVAAISSGGSTNYADSVTGRFTISRDNAKNTVYLQMNSLKPEDTGVYYCAAAIRVISDGWYYYWYDYWGQGTPVTVSS | high polyreactivity
10 | QVQHVESGGGIVQAGGSLRLSCAASGRIFDSNAMGWYRQAPGKERELVAAITTSGGSTFYADSVKGRFTISRDNAKNTVYLQMNSLKPEDTAVYYCAAGYSYYYHAIFPFDYWGQGTQVTVSS | high polyreactivity
11 | QVQHVESGGGIVQAGGSLRLSCAASGSTFIYNAMGWYRQAPGKERELVAAIDWSGGDTYYADSVKGRFTISRDNAKNTVYLQMNCLKPEDTAVYYCATRWPHYGGYYYWGQGTQVTVSS | high polyreactivity
12 | QVQHVESGGGIVQAGGSLRLSCAASGSTFRWYAMGWYRQARGQERELVAAFTAGGRTYYADSVKGRFTISRDNAKNTVYLQMNSLKPEDTAVYYCNALGKVWRGGKFGYWGQGTQVTVSS | high polyreactivity
13 | QVQHVESGGGLGQAGGSLRLSCAASGGTFQTNAKGCYRQAPGKERELVAGIRWRGGSTYYADSVKGRFTISRDNAKNTVYLQMKSLKPEDTAVYYCAAYYWQGTYDSRRTGWRLMNYWGQGTQVTVSS | high polyreactivity
14 | QVQHVESGGGLLQAGGSLRLTCAASGSTFGTYAMGWYRQAPGKERELVATISIGGITYYADSVKGRFTISRDNAKNTVYLQLNSLKPEDTAVYYCAKDVNDATSRSDPSGDDYWGQGTQVTVSS | low polyreactivity
15 | QVQHVESGGGLLQPGGSLRLSCAASGSTFRTNAMGWYRQAPGKERELVAAISRSTGSTYYADSVKGRFTISRDNAKNTVYLQMNSLKTVDSAVFYCNALSGFWGQGTQVTVSS | low polyreactivity
16 | QVQHVESGGGLVQAGGSHRLSSAASGSTFIPNAMRWYRQAPGKERELVAAISGSGGRTYYADSVKGRFTISRDNAKNTVYLQMNSLKPEDTAVYYCAASGTSRSRKSYYWGQGTQVTVSS | high polyreactivity

Row | Sequence | polyreactivity (PSR sort gate)
17 | QVQHVESGGGLVQAGGSLRLICAASGIIFDYNAMGWYRQAPGKERELVATNNDSGGSTSYAYSVKGRFTISRDKAKNTVYLQMNCLKPDDTAVYYCAVLPVYWYWRNYVYLSGYDYWGQGSQVTVSS | low polyreactivity
18 | QVQHVESGGGLVQAGGSLRLRCAASGFTFRRYALGWYRQAPGKERELVAAISGSGGSTYYADSVKGRFTISRDKAKNTVYLQMNSLKPEDTAVYYCNALLRAIAEYDYWGQGTQVTVSS | high polyreactivity
19 | QVQHVESGGGLVQAGGSLRLRCAASGSIFYINAMGWYRQAPGQERELVAAITSDGSTYYADSVKGRFTISGDNAKNSVYLQINSLKPEDTAVYYCAADLTSDQYVYYWYWFYSWGQGTQVTVSS | low polyreactivity
20 | QVQHVESGGGLVQAGGSLRLSCAASGFIFAWYTMGWDRQAPGKERELVAAISRSGVRTYYADSVKGRFTISRDNAKNTVYLQMNSLKPEDTAVYYCAVDWYPTMDYWGQGTQVTLSS | high polyreactivity
21 | QVQHVESGGGLVQAGGSLRLSCAASGFIFNRNAMGWYRQAPGKERELVAAISTRGSTYYADSVKGRFTISRDNAKNTDYLQMNSLKPEDTAVYYCAKAVYVDQGTYYYCGQGTQVTVSS | low polyreactivity
22 | QVQHVESGGGLVQAGGSLRLSCAASGFIFTYYGMGWYRQAPGKERELVAAITWSGASTYYADSVKGRFTISRDNAKNTVYLQMNSLKPEDSAVYYCNAVWDSGIVQSDETVYKYDYWGQGTQVTVSS | low polyreactivity
23 | QVQHVESGGGLVQAGGSLRLSCAASGFIFVSYTMGWYRHAPGKEWELVATITVSDGSTYYADSVKGRFTISRDNAKNTVYLQMNSLKPEDTAVYYCNKDKVVVRYDYWGQGTQVTVSS | low polyreactivity
24 | QVQHVESGGGLVQAGGSLRLSCAASGFTFGYYAMGWYRQAPGKESELVAAIRSSGGSTYYADSVKGRFTISRDYAKNTDYLQMNSLKPEDSAVYYCAVLYGYLSSSRYGYDSWGKGTQVTVSS | high polyreactivity
25 | QVQHVESGGGLVQAGGSLRLSCAASGFTFKRNAMGWYRPAPGKERELVAAITWSGGSTYYADSVKGRFTISRDNAKNTVYLQMNSLKPEDTEVYYCAALYRSRYYSGDYWGQGTQVTVSS | high polyreactivity
26 | QVQHVESGGGLVQAGGSLRLSCAASGFTFRWYTMGWYRQAPGKERELVASIRYGGGSTYYADSVKGRFTISRDNAKNTVYLQMNSLKPEDTAVYYCAAESAWTSPYDYWGQGTQVTVSS | high polyreactivity
27 | QVQHVESGGGLVQAGGSLRLSCAASGFTFRYNAMGWYRQAPGKKGSWVAAISRTGGSTYYADSVKGRFTISRDNAKNTVYLQMNSLKPEDTAVYYCARAPEGTGGKYGYWGQGTQVTVSS | high polyreactivity
28 | QVQHVESGGGLVQAGGSLRLSCAASGFTIVYYGMGRYRQAPGKERELVAAITYSGGRTYYADSVKGRFTISRDNAKNTVYLQMNSLKPEDTAVYYCNAYTQQYRSYGYWGQGTQVTVSS | high polyreactivity
29 | QVQHVESGGGLVQAGGSLRLSCAASGGIFYYYAMGWYRPAPGKERELVATISNGGSTYYADSVKGRFTISRDNAKNTVYLQMNSLNPEDTAVYYCAARDGRQPRGYRLVTYYAPMYYWGQGTQVTVSS | high polyreactivity
30 | QVQHVESGGGLVQAGGSLRLSCAASGGTFGDYAMGWSRQAPGKEREFVASITRSVSNTYYADSVKGRFTISRDNAKNTVYLQMNSLKPEDTAVYYCNADRWYPWRYIMDYWGQGTQVTVSS | low polyreactivity
31 | QVQHVESGGGLVQAGGSLRLSCAASGGTFRPYARGWSIQAPGKERELVAAISYTGSTYYADSVKGRFTISRDNAKYTVYLQMNSLKPEDTAVYYCAKDFWYPPRFDYWGQGTQVTVSS | low polyreactivity
